One molecule from CN113912708A (INST MILITARY MEDICINE ACADEMY MILITARY SCIENCES PLA, dated 2022) can be followed below.

One assay addresses MERS-CoV假病毒 (MERS-CoV). In words: cell-based or functional assay.
The next assay has as its target MERS-CoV RBD-Fc蛋白 (MERS-CoV (RBD); human (IgG Fc)).

B1: 单域重链抗体Nano-Anti-MRBD (VHH)
VHH: QVQLVESGGGLVQPGGSLRLSCAASGFSFIDYAMSWARQAPGKGLEWVSSISPGYGTTYYTDSVKGRFTISRDNAKNMLYLQMNSLKPEDTATYYCAKGSDPFTPGIQRGQGTQVTVSS
In general, EC50 refers to the concentration that produces a half-maximal response. Higher therefore signals lower potency in that assay. B1: in the assay with MERS-CoV假病毒, the “对MERS-CoV假病毒进入细胞的抑制率 (IC50, luciferase RLU, Huh-7细胞)” value was 10.7 ng/mL. This molecule gave an EC50 in the assay with MERS-CoV RBD-Fc蛋白 of 0.744 ng/mL.
